Key:
HeLa Kyoto [1] = assay: solubility in G1/S (NP-40 vs SDS abundance) (log2 ratio); higher = more soluble; details: cell cycle stage: G1/S
HeLa Kyoto [2] = assay: solubility change mitosis vs G1/S (difference of NP-40 vs SDS log2 ratios) (log2 ratio difference); higher = more soluble in mitosis
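Throughout, for solubility change mitosis vs G1/S (difference of NP-40 vs SDS log2 ratios): synchronized HeLa Kyoto cells (double thymidine block for G1/S, nocodazole release for mitosis), protein amounts in NP-40 versus SDS lysates quantified by mass spectrometry, three biological replicates.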
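Throughout, for solubility in G1/S (NP-40 vs SDS abundance): HeLa Kyoto cells arrested at G1/S by double thymidine block, proteins quantified by TMT10plex mass spectrometry in mild NP-40 versus SDS extracts, three biological replicates.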

Substance | solubility in G1/S (log2) (HeLa Kyoto [1]) | solubility change mitosis (log2) (HeLa Kyoto [2])
MTPLVSRLSRLWAIMRKPRAAVGSGHRKQAASQEGRQKHAKNNSQAKPSACDGMIAECPGAPAGLARQPEEVVLQASVSSYHLFRDVAEVTAFRGSLLSWYDQEKRDLPWRRRAEDEMDLDRRAYAVWVSEVMLQQTQVATVINYYTGWMQKWPTLQDLASASLEEVNQLWAGLGYYSRGRRLQEGARKVVEELGGHMPRTAETLQQLLPGVGRYTAGAIASIAFGQATGVVDGNVARVLCRVRAIGADPSSTLVSQQLWGLAQQLVDPARPGDFNQAAMELGATVCTPQRPLCSQCPVESLCRARQRVEQEQLLASGSLSGSPDVEECAPNTGQCHLCLPPSEPWDQTLGVVNFPRKASRKPPREESSATCVLEQPGALGAQILLVQRPNSGLLAGLWEFPSVTWEPSEQLQRKALLQELQRWAGPLPATHLRHLGEVVHTFSHIKLTYQVYGLALEGQTPVTTVPPGARWLTQEEFHTAAVSTAMKKVFRVYQGQQPGTCMGSKRSQVSSPCSRKKPRMGQQVLDNFFRSHISTDAHSLNSAAQ [MUTYH] | 0.104 | -0.0934
MAGAGRGAAVSRVQAGPGSPRRARGRQQVQPLGKQRPAPWPGLRSKEKKKVNCKPKNQDEQEIPFRLREIMRSRQEMKNPISNKKRKKAAQVTFRKTLEKEAKGEEPDIAVPKFKQRKGESDGAYIHRMQQEAQHVLFLSKNQAIRQPEVQAAPKEKSEQKKAKKAFQKRRLDKVRRKKEEKAADRLEQELLRDTVKFGEVVLQPPELTARPQRSVSKDQPGRRSQMLRMLLSPGGVSQPLTASLARQRIVEEERERAVQAYRALKQRQQQLHGERPHLTSRKKPEPQL [CCDC137] | -1.04 | 0.83
MVAWRSAFLVCLAFSLATLVQRGSGDFDDFNLEDAVKETSSVKQPWDHTTTTTTNRPGTTRAPAKPPGSGLDLADALDDQDDGRRKPGIGGRERWNHVTTTTKRPVTTRAPANTLGNDFDLADALDDRNDRDDGRRKPIAGGGGFSDKDLEDIVGGGEYKPDKGKGDGRYGSNDDPGSGMVAEPGTIAGVASALAMALIGAVSSYISYQQKKFCFSIQQGLNADYVKGENLEAVVCEEPQVKYSTLHTQSAEPPPPPEPARI [CD99L2] | -0.143 | -0.147
ARHGEF17 | -0.434 | 0.166
MTTKNLETKVTVTSSPIRGAGDGMETEEPPKSVEVTSGVQSRKHHSLQSPWKKAVPSESPGVLQLGKMLTEKAMEVKAVRILVPKAAITHDIPNKNTKVKSLGHHKGEFLGQSEGVIEPNKELSEVKNVLEKLKNSERRLLQDKEGLSNQLRVQTEVNRELKKLLVASVGDDLQYHFERLAREKNQLILENEALGRNTAQLSEQLERMSIQCDVWRSKFLASRVMADELTNSRAALQRQNRDAHGAIQDLLSEREQFRQEMIATQKLLEELLVSLQWGREQTYSPSVQPHSTAELALTNHKLAKAVNSHLLGNVGINNQKKIPSTVEFCSTPAEKMAETVLRILDPVTCKESSPDNPFFESSPTTLLATKKNIGRFHPYTRYENITFNCCNHCRGELIAL [BLZF1] | 0.15 | 0.0573
MDSPWDELALAFSRTSMFPFFDIAHYLVSVMAVKRQPGAAALAWKNPISSWFTAMLHCFGGGILSCLLLAEPPLKFLANHTNILLASSIWYITFFCPHDLVSQGYSYLPVQLLASGMKEVTRTWKIVGGVTHANSYYKNGWIVMIAIGWARGAGGTIITNFERLVKGDWKPEGDEWLKMSYPAKVTLLGSVIFTFQHTQHLAISKHNLMFLYTIFIVATKITMMTTQTSTMTFAPFEDTLSWMLFGWQQPFSSCEKKSEAKSPSNGVGSLASKPVDVASDNVKKKHTKKNE [TMEM38B] | -0.0322 | -0.17
MAGGPGPGEPAAPGAQHFLYEVPPWVMCRFYKVMDALEPADWCQFAALIVRDQTELRLCERSGQRTASVLWPWINRNARVADLVHILTHLQLLRARDIITAWHPPAPLPSPGTTAPRPSSIPAPAEAEAWSPRKLPSSASTFLSPAFPGSQTHSGPELGLVPSPASLWPPPPSPAPSSTKPGPESSVSLLQGARPFPFCWPLCEISRGTHNFSEELKIGEGGFGCVYRAVMRNTVYAVKRLKENADLEWTAVKQSFLTEVEQLSRFRHPNIVDFAGYCAQNGFYCLVYGFLPNGSLEDRLHCQTQACPPLSWPQRLDILLGTARAIQFLHQDSPSLIHGDIKSSNVLLDERLTPKLGDFGLARFSRFAGSSPSQSSMVARTQTVRGTLAYLPEEYIKTGRLAVDTDTFSFGVVVLETLAGQRAVKTHGARTKYLKDLVEEEAEEAGVALRSTQSTLQAGLAADAWAAPIAMQIYKKHLDPRPGPCPPELGLGLGQLACCCLHRRAKRRPPMTQVYERLEKLQAVVAGVPGHSEAASCIPPSPQENSYVSSTGRAHSGAAPWQPLAAPSGASAQAAEQLQRGPNQPVESDESLGGLSAALRSWHLTPSCPLDPAPLREAGCPQGDTAGESSWGSGPGSRPTAVEGLALGSSASSSSEPPQIIINPARQKMVQKLALYEDGALDSLQLLSSSSLPGLGLEQDRQGPEESDEFQS [IRAK1] | 0.247 | 0.07
MAQEKMELDLEPDTSYGGTLRRSSSAPLIHGLSDLSQVFQPYTLRTRRNSTTIMSRHSLEEGLDMVNRETAHEREMQTAMQISQSWDESLSLSDSDFDKPEKLYSPKRIDFTPVSPAPSPTRGFGKMFVSSSGLPPSPVPSPRRFSRRSQSPVKCIRPSVLGPLKRKGEMETESQPKRLFQGTTNMLSPDAAQLSDLSSCSDILDGSSSSSGLSSDPLAKGSATAESPVACSNSCSSFILMDDLSPK [FAM122B] | 1.18 | -0.79
MEKYVRLQKIGEGSFGKAILVKSTEDGRQYVIKEINISRMSSKEREESRREVAVLANMKHPNIVQYRESFEENGSLYIVMDYCEGGDLFKRINAQKGVLFQEDQILDWFVQICLALKHVHDRKILHRDIKSQNIFLTKDGTVQLGDFGIARVLNSTVELARTCIGTPYYLSPEICENKPYNNKSDIWALGCVLYELCTLKHAFEAGSMKNLVLKIISGSFPPVSLHYSYDLRSLVSQLFKRNPRDRPSVNSILEKGFIAKRIEKFLSPQLIAEEFCLKTFSKFGSQPIPAKRPASGQNSISVMPAQKITKPAAKYGIPLAYKKYGDKKLHEKKPLQKHKQAHQTPEKRVNTGEERRKISEEAARKRRLEFIEKEKKQKDQIISLMKAEQMKRQEKERLERINRAREQGWRNVLSAGGSGEVKAPFLGSGGTIAPSSFSSRGQYEHYHAIFDQMQQQRAEDNEAKWKREIYGRGLPERGILPGVRPGFPYGAAGHHHFPDADDIRKTLKRLKAVSKQANANRQKGQLAVERAKQVEEFLQRKREAMQNKARAEGHMVYLARLRQIRLQNFNERQQIKAKLRGEKKEANHSEGQEGSEEADMRRKKIESLKAHANARAAVLKEQLERKRKEAYEREKKVWEEHLVAKGVKSSDVSPPLGQHETGGSPSKQQMRSVISVTSALKEVGVDSSLTDTRETSEEMQKTNNAISSKREILRRLNENLKAQEDEKGKQNLSDTFEINVHEDAKEHEKEKSVSSDRKKWEAGGQLVIPLDELTLDTSFSTTERHTVGEVIKLGPNGSPRRAWGKSPTDSVLKILGEAELQLQTELLENTTIRSEISPEGEKYKPLITGEKKVQCISHEINPSAIVDSPVETKSPEFSEASPQMSLKLEGNLEEPDDLETEILQEPSGTNKDESLPCTITDVWISEEKETKETQSADRITIQENEVSEDGVSSTVDQLSDIHIEPGTNDSQHSKCDVDKSVQPEPFFHKVVHSEHLNLVPQVQSVQCSPEESFAFRSHSHLPPKNKNKNSLLIGLSTGLFDANNPKMLRTCSLPDLSKLFRTLMDVPTVGDVRQDNLEIDEIEDENIKEGPSDSEDIVFEETDTDLQELQASMEQLLREQPGEEYSEEEESVLKNSDVEPTANGTDVADEDDNPSSESALNEEWHSDNSDGEIASECECDSVFNHLEELRLHLEQEMGFEKFFEVYEKIKAIHEDEDENIEICSKIVQNILGNEHQHLYAKILHLVMADGAYQEDNDE [NEK1] | -0.156 | -0.0529
